The text below walks through data of patent publication EP1645881A1.

Assay [1] addresses monomeric Red Fluorescent Protein 1 (mRFP1). The assay can be described thus: dual-colour FCCS in living HeLa cells, proteins expressed separately from pIRES-EGFP-mRFP1 (negative control, 0% interaction).
For assay [2], the target named is JunΔdimΔDNA-mRFP1 (human) (UniProt P05412). The assay can be described thus: dual-colour FCCS in living HeLa cells; references: 13% for no interaction, 45% for 100% interaction.
UniProt P05412, sequence (P05412 other isoform, or with tags, fused parts or gaps mutant): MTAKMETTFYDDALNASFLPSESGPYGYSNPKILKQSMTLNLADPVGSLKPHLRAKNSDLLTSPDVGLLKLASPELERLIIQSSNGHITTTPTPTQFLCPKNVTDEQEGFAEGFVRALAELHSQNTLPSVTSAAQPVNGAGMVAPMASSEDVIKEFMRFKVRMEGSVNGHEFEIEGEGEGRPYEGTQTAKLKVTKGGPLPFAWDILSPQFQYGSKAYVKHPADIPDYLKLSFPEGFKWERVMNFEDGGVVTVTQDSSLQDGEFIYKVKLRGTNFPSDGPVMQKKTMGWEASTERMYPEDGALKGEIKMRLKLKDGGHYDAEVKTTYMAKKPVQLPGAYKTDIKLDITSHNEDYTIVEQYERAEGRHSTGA

In assay [1], “Enhanced Green Fluorescent Protein (EGFP)” showed a cross-correlation amplitude (percent of the autocorrelation signal) of 13%.

Consider “FosΔdimΔDNA-EGFP (from UniProt P01100 1-138)”, for which the cross-correlation amplitude in assay [2] was determined as 18%.
